This note sets out measurements from patent publication US20230129812A1, “COMPOSITIONS AND METHODS FOR TREATING PULMONARY HYPERTENSION” (Acceleron Pharma Inc., priority 2020, published 2023).

In one assay the target is T1, activin A (Homo sapiens, UniProt P08476).
T1 sequence (P08476 311-426): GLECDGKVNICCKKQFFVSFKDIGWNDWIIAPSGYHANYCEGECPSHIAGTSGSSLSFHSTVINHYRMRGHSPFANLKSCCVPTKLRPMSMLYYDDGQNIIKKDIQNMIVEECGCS
Briefly: A-204 reporter gene assay, pGL3(CAGA)12 luciferase. As to conditions: A-204 reporter gene assay. It is filed as cell-based. Put shortly:
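Human rhabdomyosarcoma A-204 cells transfected with SMAD-responsive pGL3(CAGA)12 luciferase reporter (optionally with pRLCMV). Ligand in medium + 0.1% BSA, preincubated ~1 h with Fc-fusion inhibitor before addition to cells; after ~6 h cells lysed and luciferase activity measured.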
(In a reporter assay the amount or activity of a reporter protein is the signal.)

Assay [1] deals with rat model of pulmonary arterial hypertension (PAH), monocrotaline-induced. The experiment in a line: Monocrotaline (MCT) rat model of pulmonary arterial hypertension. It is filed as in vivo, Sprague Dawley rats. As to conditions: MCT rats, compared to monocrotaline treated rats (vehicle). How it is done: The effects of an ActRIIA-mFc fusion protein (ActRIIA-mFc homodimer as described in Example 1), an ALK4-Fc-ActRIIB-Fc heterodimer (as described in Examples 12 and 13), and sildenafil (a phosphodiesterase-5 inhibitor approved for the treatment of PAH) were examined in a rat model of pulmonary arterial hypertension (PAH). In this model, Sprague Dawley rats received a […] injection of monocrotaline (MCT) to induce PAH 24 hours prior to start of therapy.
Rats were separated into different treatment groups (10 mice per group): 1) treatment with MCT (60 mg/kg administered i.p. as a single dose at day 1 of study) and Tris buffered saline (i.p. as 1 ml/kg, every three days) (vehicle treatment group), 2) treatment with an ActRIIA-mFc polypeptide (10 mg/kg administered i.p. every three days) and MCT (60 mg/kg administered i.p. as a single dose at day 1 of study), 3) treatment with an ALK4-Fc:ActRIIB-Fc heterodimer (10 mg/kg administered i.p. every three days) and MCT (60 mg/kg administered i.p. as a single dose at day 1 of study), 4) treatment with sildenafil (30 mg/kg administered orally twice daily) and MCT (60 mg/kg administered i.p. as a single dose at day 1 of study), and 5) control rats (Tris buffered saline administered i.p. as 1 ml/kg, every three days). Rats were treated for 28 days. Body weights were recorded prior to first dose on Day 1 and then weekly throughout the study.
On day 28, rats were anesthetized by an intraperitoneal injection of ketamine/xylazine (80/10 mg/kg). An incision was made in the neck, and a jugular vein was isolated and ligated anteriorly. A fluid-filled pressure catheter was introduced into the right jugular vein to measure pulmonary artery pressure (PAP). Another incision was made in the inguinal region, and femoral artery was isolated and ligated anteriorly. […] Mean arterial pressure and right PAP were monitored using the Notocord HEM (Croissy sur Seine, Frnace) v3.5 data capture system for approximately 5-10 minutes until stable measurements were obtained. During the measurements, rats were maintained at approximately 37° C. on a heating pad and body temperature was monitored throughout the procedure with a rectal temperature probe. […] Hypertrophy was assessed, in part, by calculating RV/LV+S. The lungs were also weighed.
Similar trends were observed on vessel muscularity based on histopathologic scoring. […] Pulmonary arterioles from vehicle treated rats were determined to be 62.3% completely muscularized, 36.4% partially muscularized, and 1.4% non-muscularized. […] Histopathological scoring of smooth muscle hypertrophy of pulmonary arterioles were also recorded as follows: 0 (normal), 1 (minimal), 2 (mild), 3 (moderate), or 4 (marked).

A further assay deals with T2, GDF8 (Homo sapiens, UniProt O14793).
T2 sequence (O14793 267-375): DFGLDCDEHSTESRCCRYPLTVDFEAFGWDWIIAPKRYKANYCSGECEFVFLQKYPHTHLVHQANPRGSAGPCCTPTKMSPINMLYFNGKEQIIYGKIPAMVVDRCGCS
Briefly: A-204 reporter gene assay, pGL3(CAGA)12 luciferase. It is filed as cell-based. The source says:
An A-204 reporter gene assay was used to evaluate the effects of ActRIIB-Fc proteins and ActRIIB variant Fc fusion polypeptides on signaling by GDF-11 and activin A. Cell line: human rhabdomyosarcoma (derived from muscle). Reporter vector: pGL3(CAGA)12 (described in Dennler et al, 1998, EMBO 17: 3091-3100). The CAGA12 motif is present in TGF-beta responsive genes (e.g., PAI-1 gene), so this vector is of general use for factors signaling through SMADs.
Day 1: Split A-204 cells into 48-well plate.
Day 2: A-204 cells transfected with 10 ug pGL3(CAGA)12 or pGL3(CAGA)12(10 ug)+pRLCMV (1 pg) and Fugene.
Day 3: Add factors (diluted into medium+0.1% BSA). Inhibitors need to be preincubated with factors for 1 hr before adding to cells. Six hrs later, cells were rinsed with PBS and lysed.
This is followed by a luciferase assay.
As described below, ActRIIB variants were also tested in this assay.
In addition, an A-204 Reporter Gene Assay was used to evaluate the effects of ALK4-Fc:ActRIIB-Fc heterodimer and ActRIIB-Fc:ActRIIB-Fc homodimer on signaling by activin A, activin B, GDF11, GDF8, BMP10, and BMP9. Cell line: Human Rhabdomyosarcoma (derived from muscle). Reporter vector: pGL3(CAGA)12 (as described in Dennler et al, 1998, EMBO 17: 3091-3100). The CAGA12 motif is present in TGFβ responsive genes (PAI-1 gene), so this vector is of general use for factors signaling through Smads. An exemplary A-204 Reporter Gene Assay is outlined below. • Day 1: Split A-204 cells into 48-well plate. • Day 2: A-204 cells transfected with 10 ug pGL3(CAGA)12 or pGL3(CAGA)12(10 ug)+pRLCMV (1 ug) and Fugene. • Day 3: Add factors (diluted into medium+0.1% BSA). Inhibitors need to be pre-incubated with Factors for about one hr before adding to cells. About six hrs later, cells are rinsed with PBS and then lysed.
Following the above steps, a Luciferase assay was performed.

B1: ALK4-Fc:ActRIIB-Fc heterodimer: heteromeric complex of extracellular domains of human ActRIIB and human ALK4, each separately fused to an Fc domain with a linker (protein)
chain 1: GRGEAETRECIYYNANWELERTNQSGLERCEGEQDKRLHCYASWRNSSGTIELVKKGCWLDDFNCYDRQECVATEENPQVYFCCCEGNFCNERFTHLPEAGGPEVTYEPPPTAPTGGGTHTCPPCPAPELLGGPSVFLFPPKPKDTLMISRTPEVTCVVVDVSHEDPEVKFNWYVDGVEVHNAKTKPREEQYNSTYRVVSVLTVLHQDWLNGKEYKCKVSNKALPAPIEKTISKAKGQPREPQVYTLPPSRKEMTKNQVSLTCLVKGFYPSDIAVEWESNGQPENNYKTTPPVLKSDGSFFLYSKLTVDKSRWQQGNVFSCSVMHEALHNHYTQKSLSLSPGK
chain 2: SGPRGVQALLCACTSCLQANYTCETDGACMVSIFNLDGMEHHVRTCIPKVELVPAGKPFYCLSSEDLRNTHCCYTDYCNRIDLRVPSGHLKEPEHPSMWGPVETGGGTHTCPPCPAPELLGGPSVFLFPPKPKDTLMISRTPEVTCVVVDVSHEDPEVKFNWYVDGVEVHNAKTKPREEQYNSTYRVVSVLTVLHQDWLNGKEYKCKVSNKALPAPIEKTISKAKGQPREPQVYTLPPSREEMTKNQVSLTCLVKGFYPSDIAVEWESNGQPENNYDTTPPVLDSDGSFFLYSDLTVDKSRWQQGNVFSCSVMHEALHNHYTQKSLSLSPG
In the case of B1, in the assay with activin A, the “inhibition of activin A signaling” value is reported as “potent inhibitors”. Further, the “improvement in body weight” value in assay [1] (28 days) was “+5.1%”. Moreover, in assay [1] (day 28, RV/LV+S), the “decrease of right heart hypertrophy” value is given as 39.6%. Moreover, in assay [1] (day 28), the “decrease of lung weight” value is 19.0% and the “reduction of elevated PAP” value is recorded as 44.6%. In the assay with GDF8, the “inhibition of GDF8 signaling” value is listed as “potent inhibitors”.
